Data from US20200385445A1.
One block for each substance: values may come before it.

Key:
[1] = biological target: mouse PVRL2 splice variant 1 (sv1) over-expressed on HEK293 cells (RC-334) (mouse) (UniProt P32507); assay: FACS on HEK293 OX mouse PVRL2 sv1
[2] = biological target: mouse PVRL2 endogenously expressed on B16-F10 cells (mouse) (UniProt P32507); assay: FACS dose response on B16-F10 cells
[3] = biological target: mouse PVRL2 splice variant 2 (sv2) over-expressed on HEK293 cells (RC-335) (mouse) (UniProt P32507); assay: FACS dose response on HEK293 OX mouse PVRL2
[4] = biological target: mouse PVRIG over-expressed on HEK293 cells (RC-287; PVRIG-FLAG RC-286) (mouse); assay: FACS on cells OX mouse PVRIG, preliminary data
[5] = biological target: mouse PVRIG over-expressed on HEK293 cells (RC-287; PVRIG-FLAG RC-286) (mouse); assay: FACS on cells OX mouse PVRIG
[6] = biological target: mouse PVRIG over-expressed on HEK293 cells (RC-287; PVRIG-FLAG RC-286) (mouse); assay: FACS on HEK293 OX mouse PVRIG, 60 ug/ml, one of two sources
[7] = biological target: mouse PVRIG over-expressed on HEK293 cells (RC-287; PVRIG-FLAG RC-286) (mouse); assay: FACS on HEK293 OX mouse PVRIG, 60 ug/ml, other of two sources

Chain of mouse PVRL2-his (R&D, 3869-N2; Sino Biological, 50318-M08H) (P32507 32-351 limits assumed, stated change not applied): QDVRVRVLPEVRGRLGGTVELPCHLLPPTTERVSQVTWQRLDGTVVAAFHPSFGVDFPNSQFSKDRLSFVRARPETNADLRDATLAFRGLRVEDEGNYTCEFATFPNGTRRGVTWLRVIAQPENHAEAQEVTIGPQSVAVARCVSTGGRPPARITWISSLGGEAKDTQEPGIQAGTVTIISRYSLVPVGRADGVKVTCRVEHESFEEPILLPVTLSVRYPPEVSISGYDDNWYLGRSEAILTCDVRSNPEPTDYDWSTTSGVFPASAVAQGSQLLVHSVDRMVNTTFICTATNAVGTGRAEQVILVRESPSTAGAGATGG
Chain of mouse PVRL2 splice variant 1 (sv1) over-expressed on HEK293 cells (RC-334) (mouse) (P32507 32-530, change not shown): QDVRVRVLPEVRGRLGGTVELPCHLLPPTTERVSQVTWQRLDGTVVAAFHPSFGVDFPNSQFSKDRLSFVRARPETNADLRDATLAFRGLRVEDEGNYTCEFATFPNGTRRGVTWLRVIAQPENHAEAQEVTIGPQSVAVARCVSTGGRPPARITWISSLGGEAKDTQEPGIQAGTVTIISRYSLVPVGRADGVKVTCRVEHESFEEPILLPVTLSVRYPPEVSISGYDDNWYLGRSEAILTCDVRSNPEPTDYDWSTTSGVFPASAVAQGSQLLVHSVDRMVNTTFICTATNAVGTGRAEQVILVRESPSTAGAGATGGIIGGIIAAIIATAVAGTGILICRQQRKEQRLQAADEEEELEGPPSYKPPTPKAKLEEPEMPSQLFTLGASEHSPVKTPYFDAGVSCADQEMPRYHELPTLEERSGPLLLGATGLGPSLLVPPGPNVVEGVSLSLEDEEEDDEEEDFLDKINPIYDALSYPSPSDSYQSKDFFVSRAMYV
Chain of custom Fc-fused mouse PVRL2 (GenScript) (P32507 32-351 limits assumed): as the sequence (P32507 32-351 limits assumed, stated change not applied) above
Chain of mouse PVRL2 splice variant 2 (sv2) over-expressed on HEK293 cells (RC-335) (mouse) (P32507 32-530, change not shown): as the sequence (P32507 32-530, change not shown) above
Chain of mouse PVRL2 endogenously expressed on B16-F10 cells (mouse) (P32507 32-530): as the sequence (P32507 32-530, change not shown) above

fold binding vs empty vector cells [1]: 6 to 11 fold | concentration at saturation of binding [2]: 12.5 µg/mL | concentration at saturation of binding [3]: 12.5 µg/mL
Substance: PVRIG mECD-mIg fusion protein (ECD of mouse PVRIG fused to the Fc of mouse IgG2a) (Fc fusion)

fold binding [4]: 5 fold
Substance: custom Fc-fused mouse PVRL2 (GenScript) (from UniProt P32507 32-351) (Fc fusion)

fold binding [5]: 2 to 3 fold | fold binding vs empty vector cells [6]: 2 fold | fold binding vs empty vector cells [7]: 3 to 4 fold
Substance: mouse PVRL2-his (R&D, 3869-N2; Sino Biological, 50318-M08H) (from UniProt P32507 32-351) (ligand)
